The values below come from PMC4966588.

The target of the test is gp41 of HIV-1 NL4.3 viral particles (HIV-1 NL4.3).

In the case of “alpha-1-antitrypsin (from UniProt P01009 25-418) (natural protein)”, the cytosolic viral p24 (ELISA) in primary CD4+ T cells pretreated with AAT and infected with HIV-1 NL4.3 Gag-iGFP was above 60 % decrease; the entry of HIV-1 NL4.3 Gag-iGFP into primary CD4+ T cells pretreated with AAT (0.5 g/L), GFP by flow cytometry, against untreated cells was above 60 % decrease.

B1: synthesized C-terminus fragment of AAT (peptide)
peptide: KGTEAAGAMFLEAIPMSIPPEVKFNKPFVFLMIDQNTKSP
On to B1, for which the cytosolic viral p24 (ELISA) in primary CD4+ T cells pretreated with C and infected with HIV-1 NL4.3 Gag-iGFP, against cells pretreated with AAT is above 50 % decrease; the entry of HIV-1 NL4.3 Gag-iGFP into primary CD4+ T cells pretreated with C (0.05 g/L), GFP by flow cytometry, against cells pretreated with AAT is above 50 % decrease.
